Laboratory results published in publication PMC10752894, “Structural basis for DNA proofreading” (Nature Communications, 2023).

Target: ΔG-loop Polγ holoenzyme (Homo sapiens, UniProt P54098;Q9UHN1 26-760+770-1239;26-485, internal_change)
Test: EMSA; 10 mM Mg2+; affinity not affected by deletion; EMSA: 40 mM Tris-HCl pH 7.9, 60 mM NaCl, 10 mM MgCl2, 5% glycerol, 20 mM 2-mercaptoethanol, 0.1 mg/ml BSA, 150 nM Cy3 scaffold, 10 min room temperature; 0.5% agarose, 0.5X TBE, 4 °C
Conditions: protein: recombinant; tags: N-terminal His (both subunits); copies: 1;2; label: 5'-Cy3 on DNA24; primer-template, 24 nt 5' template overhang

Sequence of ΔG-loop Polγ holoenzyme (P54098 other isoform, or with tags, fused parts or gaps | mutant, chain 1 of 2): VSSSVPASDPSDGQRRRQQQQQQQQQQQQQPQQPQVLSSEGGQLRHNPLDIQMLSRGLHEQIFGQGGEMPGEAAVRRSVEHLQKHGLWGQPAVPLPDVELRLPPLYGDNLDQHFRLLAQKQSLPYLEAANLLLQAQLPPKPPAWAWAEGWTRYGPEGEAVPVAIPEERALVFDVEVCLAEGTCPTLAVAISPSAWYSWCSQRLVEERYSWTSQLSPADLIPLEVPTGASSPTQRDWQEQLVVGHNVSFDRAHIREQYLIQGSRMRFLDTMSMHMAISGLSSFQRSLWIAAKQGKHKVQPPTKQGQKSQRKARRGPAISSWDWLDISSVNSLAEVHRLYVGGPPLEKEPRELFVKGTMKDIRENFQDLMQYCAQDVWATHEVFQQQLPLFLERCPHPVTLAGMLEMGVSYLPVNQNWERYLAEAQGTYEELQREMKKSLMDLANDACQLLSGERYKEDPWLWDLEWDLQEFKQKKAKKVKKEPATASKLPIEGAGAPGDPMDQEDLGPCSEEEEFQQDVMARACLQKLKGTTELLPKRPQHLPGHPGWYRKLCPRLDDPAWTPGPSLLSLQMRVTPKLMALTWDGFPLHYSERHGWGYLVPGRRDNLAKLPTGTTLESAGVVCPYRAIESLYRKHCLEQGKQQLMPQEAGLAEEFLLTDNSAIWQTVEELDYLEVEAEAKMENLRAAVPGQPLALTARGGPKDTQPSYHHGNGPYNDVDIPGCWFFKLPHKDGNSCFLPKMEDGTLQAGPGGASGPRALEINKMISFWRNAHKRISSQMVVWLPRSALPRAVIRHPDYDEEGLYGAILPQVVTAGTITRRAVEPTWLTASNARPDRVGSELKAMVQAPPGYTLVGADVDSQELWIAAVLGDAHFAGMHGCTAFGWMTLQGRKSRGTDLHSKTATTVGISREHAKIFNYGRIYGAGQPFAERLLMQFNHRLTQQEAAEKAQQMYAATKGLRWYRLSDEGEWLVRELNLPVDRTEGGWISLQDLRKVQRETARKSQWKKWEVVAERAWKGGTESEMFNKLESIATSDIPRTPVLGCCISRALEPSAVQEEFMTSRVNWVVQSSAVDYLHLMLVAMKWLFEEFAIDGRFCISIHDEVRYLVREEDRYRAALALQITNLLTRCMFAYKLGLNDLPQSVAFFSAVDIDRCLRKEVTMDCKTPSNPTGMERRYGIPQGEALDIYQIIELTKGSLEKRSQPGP
Sequence of ΔG-loop Polγ holoenzyme (Q9UHN1 26-485, stated change not applied, chain 2 of 2): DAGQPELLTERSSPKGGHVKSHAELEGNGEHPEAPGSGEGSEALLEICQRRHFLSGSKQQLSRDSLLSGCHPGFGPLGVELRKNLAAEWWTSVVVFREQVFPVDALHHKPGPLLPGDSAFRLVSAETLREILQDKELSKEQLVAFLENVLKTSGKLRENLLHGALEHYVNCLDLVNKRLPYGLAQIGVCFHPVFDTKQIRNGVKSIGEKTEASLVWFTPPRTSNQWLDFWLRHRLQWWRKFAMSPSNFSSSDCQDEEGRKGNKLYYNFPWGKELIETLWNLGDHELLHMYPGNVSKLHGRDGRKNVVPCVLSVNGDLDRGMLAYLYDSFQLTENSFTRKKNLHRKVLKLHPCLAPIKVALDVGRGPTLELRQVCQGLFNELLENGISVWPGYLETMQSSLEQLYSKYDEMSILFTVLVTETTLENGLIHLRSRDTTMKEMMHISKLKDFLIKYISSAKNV

B1: DNA24/DNA24TS (dsDNA)
DNA 1: GGTACAACTTGACGACATAGCGTG
DNA 2: CGGTCGAGTCACGACTCCGATTATCACGCTATGTCGTCAAGTTGTACC
binding result: binds
